± gives the standard deviation of the averaged measurements.
Assay: total protein half-life in vivo (active degradation + dilution); higher = more stable protein
[1] = E. coli NCM3722 delta-clpP, growth: N-lim chemostat, doubling time 6 h
[2] = E. coli NCM3722 delta-hslV, growth: N-lim chemostat, doubling time 6 h
[3] = wild type E. coli NCM3722, growth: C-lim chemostat, doubling time 6 h
[4] = wild type E. coli NCM3722, growth: C-lim chemostat, doubling time 12 h
[5] = wild type E. coli NCM3722, growth: N-lim chemostat, doubling time 6 h
[6] = wild type E. coli NCM3722, growth: N-lim chemostat, doubling time 12 h
[7] = wild type E. coli NCM3722, growth: P-lim chemostat, doubling time 6 h
[8] = wild type E. coli NCM3722, growth: P-lim chemostat, doubling time 12 h
[9] = E. coli NCM3722 delta-clpP delta-lon delta-hslV, growth: N-lim chemostat, doubling time 6 h
[10] = E. coli NCM3722 delta-lon, growth: N-lim chemostat, doubling time 6 h
[11] = E. coli NCM3722 delta-smpB, growth: N-lim chemostat, doubling time 6 h
[12] = wild type E. coli NCM3722, growth: C-lim chemostat, doubling time 3 h

Sequence	total protein half-life in vivo [1] [h]	total protein half-life in vivo [2] [h]	total protein half-life in vivo [3] [h]	total protein half-life in vivo [4] [h]	total protein half-life in vivo [5] [h]	total protein half-life in vivo [6] [h]	total protein half-life in vivo [7] [h]	total protein half-life in vivo [8] [h]	total protein half-life in vivo [9] [h]	total protein half-life in vivo [10] [h]	total protein half-life in vivo [11] [h]	total protein half-life in vivo [12] [h]
MSGKPAARQGDMTQYGGSIVQGSAGVRIGAPTGVACSVCPGGVTSGHPVNPLLGAKVLPGETDIALPGPLPFILSRTYSSYRTKTPAPVGSLGPGWKMPADIRLQLRDNTLILSDNGGRSLYFEHLFPGEDGYSRSESLWLVRGGVAKLDEGHRLAALWQALPEELRLSPHRYLATNSPQGPWWLLGWCERVPEADEVLPAPLPPYRVLTGLVDRFGRTQTFHREAAGEFSGEITGVTDGAWRHFRLVLTTQAQRAEEARQQAISGGTEPSAFPDTLPGYTEYGRDNGIRLSAVWLTHDPEYPENLPAAPLVRYGWTPRGELAVVYDRSGKQVRSFTYDDKYRGRMVAHRHTGRPEIRYRYDSDGRVTEQLNPAGLSYTYQYEKDRITITDSLDRREVLHTQGEAGLKRVVKKEHADGSVTQSQFDAVGRLRAQTDAAGRTTEYSPDVVTGLITRITTPDGRASAFYYNHHNQLTSATGPDGLELRREYDELGRLIQETAPDGDITRYRYDNPHSDLPCATEDATGSRKTMTWSRYGQLLSFTDCSGYVTRYDHDRFGQMTAVHREEGLSQYRAYDSRGQLIAVKDTQGHETRYEYNIAGDLTAVIAPDGSRNGTQYDAWGKAVRTTQGGLTRSMEYDAAGRVIRLTSENGSHTTFRYDVLDRLIQETGFDGRTQRYHHDLTGKLIRSEDEGLVTHWHYDEADRLTHRTVKGETAERWQYDERGWLTDISHISEGHRVAVHYRYDEKGRLTGERQTVHHPQTEALLWQHETRHAYNAQGLANRCIPDSLPAVEWLTYGSGYLAGMKLGDTPLVEYTRDRLHRETLRSFGRYELTTAYTPAGQLQSQHLNSLLSDRDYTWNDNGELIRISSPRQTRSYSYSTTGRLTGVHTTAANLDIRIPYATDPAGNRLPDPELHPDSTLSMWPDNRIARDAHYLYRYDRHGRLTEKTDLIPEGVIRTDDERTHRYHYDSQHRLVHYTRTQYEEPLVESRYLYDPLGRRVAKRVWRRERDLTGWMSLSRKPQVTWYGWDGDRLTTIQNDRSRIQTIYQPGSFTPLIRVETATGELAKTQRRSLADALQQSGGEDGGSVVFPPVLVQMLDRLESEILADRVSEESRRWLASCGLTVEQMQNQMDPVYTPARKIHLYHCDHRGLPLALISTEGATAWCAEYDEWGNLLNEENPHQLQQLIRLPGQQYDEESGLYYNRHRYYDPLQGRYITQDPIGLKGGWNLYGYQLNPISDIDPLGLSMWEDAKSGACTNGLCGTLSAMIGPDKFDSIDSTAYDALNKINSQSICEDKEFAGLICKDNSGRYFSTAPNRGERKGSYPFNSPCPNGTEKVSAYHTHGADSHGEYWDEIFSGKDEKIVKSKDNNIKSFYLGTPSGNFKAIDNHGKEITNRKGLPNVCRVHGNM	5.71	6.16 ± 0.29	5.99 ± 0.77	15.1	5.88	12.5 ± 0.6	4.38	13.7				
MNPLKAGDIAPKFSLPDQDGEQVNLTDFQGQRVLVYFYPKAMTPGCTVQACGLRDNMDELKKAGVDVLGISTDKPEKLSRFAEKELLNFTLLSDEDHQVCEQFGVWGEKSFMGKTYDGIHRISFLIDADGKIEHVFDDFKTSNHHDVVLNWLKEHA [P0AE52]	5.26 ± 0.76	4.92 ± 0.074	5.36 ± 0.065	7.64 ± 0.72	4.08 ± 0.36	7.49 ± 0.41	4.38 ± 0.081	11 ± 0.55	5.42 ± 0.21	6.45 ± 1.5	4.25 ± 0.079	2.85 ± 0.64
MEKRTPHTRLSQVKKLVNAGQVRTTRSALLNADELGLDFDGMCNVIIGLSESDFYKSMTTYSDHTIWQDVYRPRLVTGQVYLKITVIHDVLIVSFKEK								13.2 ± 0.69	5.29		5	3.12
MSSKVEQLRAQLNERILVLDGGMGTMIQSYRLNEADFRGERFADWPCDLKGNNDLLVLSKPEVIAAIHNAYFEAGADIIETNTFNSTTIAMADYQMESLSAEINFAAAKLARACADEWTARTPEKPRYVAGVLGPTNRTASISPDVNDPAFRNITFDGLVAAYRESTKALVEGGADLILIETVFDTLNAKAAVFAVKTEFEALGVELPIMISGTITDASGRTLSGQTTEAFYNSLRHAEALTFGLNCALGPDELRQYVQELSRIAECYVTAHPNAGLPNAFGEYDLDADTMAKQIREWAQAGFLNIVGGCCGTTPQHIAAMSRAVEGLAPRKLPEIPVACRLSGLEPLNIGEDSLFVNVGERTNVTGSAKFKRLIKEEKYSEALDVARQQVENGAQIIDINMDEGMLDAEAAMVRFLNLIAGEPDIARVPIMIDSSKWDVIEKGLKCIQGKGIVNSISMKEGVDAFIHHAKLLRRYGAAVVVMAFDEQGQADTRARKIEICRRAYKILTEEVGFPPEDIIFDPNIFAVATGIEEHNNYAQDFIGACEDIKRELPHALISGGVSNVSFSFRGNDPVREAIHAVFLYYAIRNGMDMGIVNAGQLAIYDDLPAELRDAVEDVILNRRDDGTERLLELAEKYRGSKTDDTANAQQAEWRSWEVNKRLEYSLVKGITEFIEQDTEEARQQATRPIEVIEGPLMDGMNVVGDLFGEGKMFLPQVVKSARVMKQAVAYLEPFIEASKEQGKTNGKMVIATVKGDVHDIGKNIVGVVLQCNNYEIVDLGVMVPAEKILRTAKEVNADLIGLSGLITPSLDEMVNVAKEMERQGFTIPLLIGGATTSKAHTAVKIEQNYSGPTVYVQNASRTVGVVAALLSDTQRDDFVARTRKEYETVRIQHGRKKPRTPPVTLEAARDNDFAFDWQAYTPPVAHRLGVQEVEASIETLRNYIDWTPFFMTWSLAGKYPRILEDEVVGVEAQRLFKDANDMLDKLSAEKTLNPRGVVGLFPANRVGDDIEIYRDETRTHVINVSHHLRQQTEKTGFANYCLADFVAPKLSGKADYIGAFAVTGGLEEDALADAFEAQHDDYNKIMVKALADRLAEAFAEYLHERVRKVYWGYAPNENLSNEELIRENYQGIRPAPGYPACPEHTEKATIWELLEVEKHTGMKLTESFAMWPGASVSGWYFSHPDSKYYAVAQIQRDQVEDYARRKGMSVTEVERWLAPNLGYDAD	4.3 ± 0.33	3.71 ± 0.047	5.05 ± 0.14	8.09 ± 0.26	3.489 ± 0.028	5.48 ± 0.14	5.43 ± 0.51	9.81 ± 0.4	5.12 ± 0.36	3.96 ± 0.33	3.31 ± 0.087	2.73 ± 0.051

From the supplement of paper PMC11246515
